Data on four molecules can be found in patent US20220162268A1 (BOARD OF TRUSTEES OF MICHIGAN STATE UNIVERSITY, published 2022).

In assay [1] the target is T1, K28A_HO BMC-H 5815ggsSZ5-HA.
T1 construct: Self-assembles into higher-order sheets in E. coli; also called K28A 5815-Synthetic Zipper5 construct; K28AHO BMC-H-SZ5
T1 chain: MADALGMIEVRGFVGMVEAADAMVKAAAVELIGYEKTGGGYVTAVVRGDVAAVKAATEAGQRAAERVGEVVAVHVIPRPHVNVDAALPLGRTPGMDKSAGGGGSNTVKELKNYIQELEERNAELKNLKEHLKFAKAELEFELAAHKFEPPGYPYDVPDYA
Description: fluorescence microscopy of E. coli co-expressing both, 100 µM or 500 µM IPTG (FIG. 2I).

Assay [2] shares this target. Description: fluorescence co-localization in E. coli, deconvolved widefield (FIG. 2C).
The target is the same in assay [3]. Description: fluorescence co-localization in E. coli, 100 µM or 500 µM IPTG (FIG. 2I).
For assay [4] the target is unchanged. As to the kind of experiment: live-cell fluorescence time course in E. coli. Here is the method:
E. coli BL21 ArcticExpress (DE3) competent cells (Agilent) were used for cellular expression studies. Competent cells were transformed with constructs containing the gene(s) of interest and plated on LB agar plates with the appropriate antibiotic(s) to provide selection. Individual colonies were picked into 5 mL LB cultures with the appropriate antibiotics(s) and incubated at 30° C., with a rotational stirring of 250 RPM. These overnight cultures were inoculated 1:100 into fresh liquid cultures with conditions dependent upon the experimental plan. For TEM analysis, cells were inoculated in 50 mL LB, grown until ˜OD₆₀₀ 0.8, induced with 100 μM IPTG, and incubated for an additional 6 hours, before 2 mL of the parent culture was fixed overnight at 4° C. Cells used to purify protein were cultured in a similar manner, the whole culture was pelleted, and cell pellets were stored at −20° C. for subsequent protein isolation. Cultures analyzed via light microscopy were inoculated into 1 mL LB or SOB media in culture tubes and incubated the indicated amount of time before imaging. Appropriate inducer(s) (IPTG or aTc) were added as indicated for each experimental design.
The dynamics of scaffold nucleation and maturation was then visualized over time in live cells. […]

B1: STREP-mScarlet-I (other)
chain: MVSKGEAVIKEFMRFKVHMEGSMNGHEFEIEGEGEGRPYEGTQTAKLKVTKGGPLPFSWDILSPQFMYGSRAFIKHPADIPDYYKQSFPEGFKWERVMNFEDGGAVTVTQDTSLEDGTLIYKVKLRGTNFPPDGPVMQKKTMGWEASTERLYPEDGVLKGDIKMALRLKDGGRYLADFKTTYKAKKPVQMPGAYNVDRKLDITSHNEDYTVVEQYERSEGRHSTGGMDELYK
notes: Fluorescent cargo without an SZ6 domain; also called untagged cargo
For the molecule B1, the binding result in assay [1] is recorded as “no binding”.

B2: Synthetic Zipper6 LINKER mNeonGreen StrepII Tag construct (designed binder)
chain: MQKVAQLKNRVAYKLKENAKLENIVARLENDNANLEKDIANLEKDIANLERDVARGSGGGSGGGSMVSKGEEDNMASLPATHELHIFGSINGVDFDMVGQGTGNPNDGYEELNLKSTKGDLQFSPWILVPHIGYGFHQYLPYPDGMSPFQAAMVDGSGYQVHRTMQFEDGASLTVNYRYTYEGSHIKGEAQVKGTGFPADGPVMTNSLTAADWCRSKKTYPNDKTIISTFKWSYTTGNGKRYRSTARTTYTFAKPMAANYLKNQPMYVFRKTELKHSKTELNFKEWQKAFTDVMGMDELYKSAWSHPQFEK
notes: also called SZ6-ggs-mNeonGreen; SZ6-mNeonGreen
On to B2, for which the binding result in assay [2] was “binds”.

B3: Synthetic Zipper6 LINKER mScarlet-I StrepII Tag construct (designed binder)
chain: MQKVAQLKNRVAYKLKENAKLENIVARLENDNANLEKDIANLEKDIANLERDVARGSGGGSGGGSMVSKGEAVIKEFMRFKVHMEGSMNGHEFEIEGEGEGRPYEGTQTAKLKVTKGGPLPFSWDILSPQFMYGSRAFIKHPADIPDYYKQSFPEGFKWERVMNFEDGGAVTVTQDTSLEDGTLIYKVKLRGTNFPPDGPVMQKKTMGWEASTERLYPEDGVLKGDIKMALRLKDGGRYLADFKTTYKAKKPVQMPGAYNVDRKLDITSHNEDYTVVEQYERSEGRHSTGGMDELYKSAWSHPQFEK
notes: also called SZ6-ggs-mScarlet-I; SZ6-mScarlet-I
As for B3, in assay [3], the binding result was “binds”.

B4: STREP-mNeonGreen (other, not shown: small tags and cut ends)
chain: MVSKGEEDNMASLPATHELHIFGSINGVDFDMVGQGTGNPNDGYEELNLKSTKGDLQFSPWILVPHIGYGFHQYLPYPDGMSPFQAAMVDGSGYQVHRTMQFEDGASLTVNYRYTYEGSHIKGEAQVKGTGFPADGPVMTNSLTAADWCRSKKTYPNDKTIISTFKWSYTTGNGKRYRSTARTTYTFAKPMAANYLKNQPMYVFRKTELKHSKTELNFKEWQKAFTDVMGMDELYK
notes: Fluorescent cargo without an SZ6 domain; also called untagged cargo; untagged cargo construct PLacO::mNeonGreen
Regarding B4, in assay [4], the binding result is reported as “no binding”.
